Measured values reported in patent publication US20250243287A1 (SHENGHE CHINA BIOPHARMACEUTICAL, published 2025).

Key:
[1] = biological target: T1, human CCR8 (chemokine (C-C motif) receptor 8) (human, UniProt P51685 1-355); assay: flow cytometry on CCR8-CHO-K1 cells
T1 construct: whole, on cells; also called CCR8-CHO-K1 cells; CHOK1-CCR8 cells
Procedure: (§1) The antibody to be tested was taken as the initial concentration of 50 μg/mL and diluted 5-fold with 6 gradients. The cells CCR8-CHO-K1 in the incubator were taken out, and the cell suspension was transferred to a 15 mL centrifuge tube, centrifuged, and counted by resuspension in PBS. A blank control group (Blank), a negative control group (NC), an experimental group, a positive control group (positive control BMK derived from the 1K17 sequence of US20210277129) and the irrelevant antibody group were kept. The cell suspension was spread in a 96-well plate according to about 3×10⁵ cells/well. Centrifugation (1000 rpm, 5 min) was performed, followed by washing with PBS, re-centrifugation, and repeated twice to remove media residues. The supernatant was discarded, 100 μL of primary antibody solution and irrelevant antibody solution were added to the experimental group and irrelevant antibody group, respectively, and the cells were resuspended and incubated at room temperature for 1 h. The blank group, and the negative control group were incubated with an equal amount of PBS.
(§2) After 1 h, PBS was added to wash twice. […] After the supernatant was discarded, 120 μL of PBS was added to resuspend and sequentially flow cytometry was performed to detect the mean fluorescence intensity. […]

[2] = biological target: T1, human CCR8 (chemokine (C-C motif) …); assay: flow cytometry on CCR8-CHO cells
Procedure: as §1, §2

[3] = biological target: T1, human CCR8 (chemokine (C-C motif) …); assay: flow cytometry on CCR8-CHO-K1 cells, PE anti-human IgG Fc secondary
Procedure: as §1, with “The supernatant was discarded, 100 μL of primary antibody solution and irrelevant antibody solution were added to the experimental group and irrelevant antibody group, respectively, and the cells were resuspended and incubated at room temperature for 1 h. The blank group, and the negative control group were incubated with an equal amount of PBS.” left out
as §2
The binding activity of the chimeric antibodies was detected by FACs method, the secondary antibody was PE F(ab′) 2 sheep anti-human IgG Fc (Biolegend, Cat: 398004), and the assay procedure was the same as Example 6, and the results are shown in FIG. 2.

[4] = biological target: T1, human CCR8 (chemokine (C-C motif) …); assay: flow cytometry on CHOK1-CCR8 cells, steps of Example 6

T1 sequence (P51685 whole entry): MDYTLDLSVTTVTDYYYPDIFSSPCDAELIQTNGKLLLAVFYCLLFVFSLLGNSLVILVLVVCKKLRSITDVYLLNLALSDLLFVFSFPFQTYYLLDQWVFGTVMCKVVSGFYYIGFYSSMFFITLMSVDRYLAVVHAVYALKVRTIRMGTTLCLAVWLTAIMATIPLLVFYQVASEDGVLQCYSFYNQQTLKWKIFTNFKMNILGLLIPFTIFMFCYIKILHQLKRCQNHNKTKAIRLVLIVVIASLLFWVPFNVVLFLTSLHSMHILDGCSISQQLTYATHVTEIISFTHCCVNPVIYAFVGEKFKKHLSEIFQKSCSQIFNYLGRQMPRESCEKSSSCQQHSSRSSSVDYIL

Binder | binding result [1] | binding result [2] | further results
Ms-1 (antibody, V domains shown, Mouse hybridoma antibody; also called mouse-derived anti-CCR8 antibody Ms-1) VH: QVQLQQSGAELVRPGASVTLSCKASGYTFTAYEMHWVRQTPVNGLEWIGAIDPKTGVTAYNQKFKDKAIMTADKYSSTAYMDLRSLTSEDSAVYYCTSRAGGRGRFAYWGQGTLVTVSA VL: DVVMTQTPLSLPVSLGDQASISCRSSQSLVHSSANTYLHWYLQKPGQSPKVLIYKVSNRFSGVPDRFSGSGSGTDFTLKISRVEAEDLGLYFCSQSTHVPFTFGGGTKLEIK | binds |  | 
Ms-2 (antibody, V domains shown, Mouse hybridoma antibody; also called mouse-derived anti-CCR8 antibody Ms-2) VH: QVQLQQSGAELARPGASVTLSCKASGYTFTDYEMHWVKQTPVRGLEWIGAIDPETGATAYNQKFKGKATLTADKSSNTAYMELRRLTSEDSAVYYCKSRAGGRGRFAYWGQGTLVTVSA VL: DVVMTQTPLSLPVRLGDQASISCRSSQSLVHSSGNTYLHWYLQKSGQSPKLLIYKVSNRFSGVPDRFSGSGSGTDFTLKISRVEAEDLGVYFCSQTTHVPYTFGGGTKLEIK |  | binds | 
chimeric antibody CH-2 (antibody, V domains shown, Variable domains of Ms-2 in a human IgG framework, expressed in CHO cells) VH: QVQLQQSGAELARPGASVTLSCKASGYTFTDYEMHWVKQTPVRGLEWIGAIDPETGATAYNQKFKGKATLTADKSSNTAYMELRRLTSEDSAVYYCKSRAGGRGRFAYWGQGTLVTVSA VL: DVVMTQTPLSLPVRLGDQASISCRSSQSLVHSSGNTYLHWYLQKSGQSPKLLIYKVSNRFSGVPDRFSGSGSGTDFTLKISRVEAEDLGVYFCSQTTHVPYTFGGGTKLEIK |  |  | binding result [3]: binds
Hu-15-Z10 (antibody, V domains shown, Humanized from CH-15; also called humanized antibody Hu-15-Z10) VH: EVQLVESGGGLVQPGGSLRLSCAASGFTFNTNAMNWVRQAPGKGLEWVGRIRTKSNNYATYYAESVRDRFTISRDDSKNSLYLQMNSLKTEDTAMYYCVRGGYGIRADYTMDYWGQGTLVTVSS VL: DIVMTQSPPTLSLSPGERATLSCRSSKSLLHSNGNTYLYWFQQKPGQSPQLLIYRMSNLASGIPDRFSGSGSGTDFTLTISRLEPEDFAVYYCMQHLEYPFTFGQGTKLEIK |  |  | binding result [4]: binds
Ms-8 (antibody, V domains shown, Mouse hybridoma antibody; also called mouse-derived anti-CCR8 antibody Ms-8) VH: EVQLVETGGGLVQPKGSLKLSCAASGFTFNTYAMNWVRQTPEKGLEWVARIRTKSNNYATSYADSVKDRFTISRYDSQNMLYLQMNNLKTEDTAMYYCVRGGYGIRGDYAMDYWGQGTSVTVSS VL: DIVMTQAAPSVPVTPGESVSISCRSTKSLLHSNGNTYLYWFLQRPGQSPQLLIYRMSNLASGVPDRFSGSGSGTTFTLRISRVEAEDVGVYYCMQHLEYPFTFGSGTKLEIK |  | binds | 
Ms-15 (antibody, V domains shown, Mouse hybridoma antibody; also called mouse-derived anti-CCR8 antibody Ms-15) VH: EVQLVETGGGLVQPKGSLKLSCAASGFTFNTNAMNWVRQAPGKGLEWVGRIRTKSNNYATYYADSVRDRFTISRYDSQGMLYLQMNNLKTEDTAMYYCVRGGYGIRGDYTMDYWGQGTSVTVSS VL: DIVMTQAAPSVPVTPGESVSISCRSSKSLLHSNGNTYLYWFLQRPGQSPQLLIYRMSNLASGVPDRFSGSGSGTAFTLRISRVEAEDVGVYYCMQHLEYPFTFGSGTKLEIK | binds |  | 
